From article PMC4607269 (Cell, 2015)

B1: GFP-xBuGZ-A (domain or fragment, Xenopus, UniProt Q7ZXV8 111-187, looked up)
chain: NQDDSDYDDDDDTAPSTSFQQMQTQQAFMPTMGQPGIPGLPGAPGMPPGITSLMPAVPPLISGIPHVMAGMHPHGMM
B2: GFP-xBuGZ-B (domain or fragment, Xenopus, UniProt Q7ZXV8 258-334, looked up)
chain: SAGQAQAHISGPVGTDFKPLNNIPATTAEHPKPTFPAYTQSTMSTTSTTNSTASKPSTSITSKPATLTTTSATSKLV
B3: YFP-tagged xBuGZ (Xenopus BuGZ) (natural protein)
chain: not shown
B4: GFP-xBuGZ-C (domain or fragment, Xenopus, UniProt Q7ZXV8 376-452, looked up)
chain: GAMMAPRPGLPPQQHGMRHPLPPHGQYGAPLQGMAGYHPGTMPPFGQGPPMVPPFQGGPPRPLMGIRPPVMSQGGRY

What follows are binders tested against His-xBuGZ (Xenopus, UniProt Q7ZXV8 1-452) (assay: incorporation into His-xBuGZ droplets).

binding result | Binder
binds | B1
binds | B2
binds | B3
binds | B4
